# Experiment: soluble on expression in E. coli; label from the status in PepcDB or PDB records
row,Sequence,soluble on expression in E. coli
1,EQISISSPRKRIYHNILETIGGTPLVELHGVTEHPRIKKGTRILVKLEYFNPMSSVKDRVGFNIVYQAIKDGRLKPGMEIIESTSGNTGIALCQAGAVFGYRVNIAMPSTMSVERQMIMKAFGAELILTEGKKGMPGAIEEVNKMIKENPGKYFVANQFGNPDNTAAHHYTANEIWEDTDGEVDIVVSAVGTSGTVIGVAEKLKEKKKGIKIIAVEPEESAVLEGKAKGPHGIQGIGAGFIPDIYKKEFVDEIIPIKTQDAWKMARAVVKYDGIMCGMSSGAAILAGLKEAEKPENEGKTIVIIVPSCGERYLSTDLYKIKDEGTKIQILDSLLNEHH,soluble
2,DRWIRPRGAFGGLPSLKSSFVLSESTVPGTNETVKTFLPYGSVINYYGYVKPGQAPDGLVDGNKKAYYLYVWIPAVIAEMGVRMISPTGEIGEPGDGDLVSDAFKAATPEEKSMPHWFDTWIRVERMSAIMPDQIAKAAKAKPVQKLDDDDDGDDTYKEERHNKYNSLTRIKIPNPPKSFDDLKNIDTKKLLVRGLYRISFTTYKPGEVKGSFVASVGLLFPPGIPGVSPLIHSNPEELQKQAIAAEESLKKAASDATK,soluble
3,MSLLNIKFTDNAVDYLKRREILDKILILITDDGGGKYSIQGGSCSMGAHFSIIWLDKVDPDYPVKIANEQNVKIYTSDFDKTMLGPNMVMDYNAGSLSLSSDEGLLDGSVDIGNGAALLKANKNVQMGINRQCEGHHHHHH,soluble
4,MVSKIIKLGVPTATLAVGTLLLGDDEKRSAFFRTASAFTQNHGHKTFDEHFPRGEWDKNWDFRDPISLVDKGKWEKADEEGKKKLIEEKKATATRNIFLIRHGQYHLDHEVKMLTPLGREQAELLGKRLANSDIKFTNMTMSTMVRATETANIILKHLPDDLTRTSSPFIEEGPPYPPVPDHKTWRPLDPEFYTEAARIESAYRKIFHRASPSQKEDSFELIVCHANVIRYFICRALQFPPEGWLRMSLGNCSLTWITIRPKGHVSVRSIGDIGHLPPNKISFT,not soluble
5,STDVHRRFLQLLMTHGVLEEWDVKRLQTHCYKVHDRSATVDKLEDFINNINSVLESLYIEIKRGVTEDDGRPIYALVNLATTSISKMATDFAENELDLFRKALELIIDSETGFASSTNILNLVDQLKGKKMRKKEAEQVLQKFVQNKWLIEKEGEFTLHGRAILEMEQYIRETYPDAVKICNICHSLLIQGQSCETCGIRMHLPCVAKYFQSNAEPRCPHCNDYWPHEIPKVFDPEKERESGVLKSNKKSLRSRQH,soluble
6,MSLDNKNKSEVQAQETVQVSYKEKNRESSLASALDVLSRFGGFNFLESTVDGVQNLNPERKARKKIFLTDEQKQEEREVLKNKIDMWIDLLNSSSAVTEMIATSKAKSEAAASHLAKSQLVAVQSVRDMEQAYRGVMLFYKNTEADKVNNVTIVNASKEQLTDLDNPRFIDFVARELKQNYDKLDLRQNYSLLAIPGYLGSNKVLEKWAKIAYENKVMLYTDFADLDKPEDVVELFSSSNMASGEAFKSNTCMTCNWLVGRAGYREIGEEEDLHVSPSIALMGKVYTTLMSQVTAGKKYGGINEIDAVVFPLKKSEISQLEKMGLIPMVNEYGKVMAFSAKTLFNGDNLGLQTYSVVRVFDYITKVLFDFLNRRSFENWSSKTERDLRGQIVQYLDSVQGADRLIEKFKIIRFEQDQKQKDRIYLDIHMTPFFPAKSFVIKLDGTKGDDGTNWNTNYEEGHHHHHH,not soluble
7,MFRGATAVNLDSKGRVAIPTRYRAEILEKNQGQMVCTVDIRQSCLLLYPLDEWEKIEQKLLALSNFDPTQRRLQRVMLGHATECEMDAQGRILLSGPLRQHAKLEKGLMLVGQLNKFEIWSDVEWHTQIAEDIEIGSSTDFAADALNDFSL,not soluble
8,DVQLQQSGPELKKPGETVKLSCKASGYTFTNFGLNWMKQAPGKGLKWMGWINTYTGESTYADDFKGRFAFSLETSASTAYLQINNVKNEDTATYFCARGFYYYGSRYFYFDYWGQGTTLTVSSAKTTAPSVYPLAPVCGDTTGSSVTLGCLVKGYFPEPVTLTWNSGSLSSGVHTFPAVLQSDLYTLSSSVTVTSSTWPSQSITCNVAHPASSTKVDKKIEPRGP,soluble
9,MSLTVPQSITELDLKNLTNRTFHPSPVAWEDQVLYFLLLDRFSDGKETGYRDNRGRRVAKGETPLYQPGDAGNAIRTEPEAAVWRESGSRWCGGTLKGLASKMGYLKRMGVTAVWVSPLFKQCSFVPTYHGYGIQNFLEVDPHFGTADDLRELVHVAHANGIYVILDIILNHAGNIFAYDRGYTPYDGSTVYPVTGFRSADGTPNLPFGPIDTKANPDAWPDGAVWPRELQAANAYTRMGHIRDWDSYHEYLDGDFFDLKDIHLGEGEVDAFRPSPALLALCEVYKYWIALSDVDGYRIDTVKHMGAGATRFFASVIHEFAQAIGKENFYLIGEITGGRDNAFNTLATTGLNAALGVDDIPLRLEDLVKGRANPADYFNLFRNSLLVRKESHVWFRDKVVTVIDDHDQVCRGAKKERFCAGDPKWRRLVLNALALNTTTLGIPCVYYGTEQAFDGEGGDDRYLRECMFGGPFGAFRTRGVQFFDEENPVYREFAKILALRREKLPLRRGRQYLREISGDGVTFGLPYVIGGEIRSVVPWSRIFDTEEMVLAINTDADSPRTAWVLVDGSLHREGDRFAYRYSTDPGQVRGTTAVQRINDAVQAIQVTVPAAGFVMLEQREGHHHHHH,soluble
10,MGSDKIHHHHHHMIEFKEVSKRFGSTLALDKLDANFPTGKIIGLFGPNGAGKSTSIKMIAGLNRPDQGQVVIDGELPRMSKAQIAYLPEIDHLYPWMTIGQAAGFTRSFYVDWDNDKYHELLKYLNLNAEMKIGKISKGQRAKTKLLLTAARRAPYLLMDEPLSGIDILTREEIINTLVRDYREGEQTIIISTHEIAEVESLVDEVFFIDQGKIMLSGSAEEFRVERGQSLVEIMKEAFRHADQ,not soluble
11,MDLIFSLGVMIMPLTPPASPKTERRSEEDNQQTNQQGNEQGNQQPRSSILTLFGFTPNALVMPCPHGHGHFHIMDIQADDTLVFATMNGSPEIMSLLALQFLMQNVNLNLDDMLAAETDAKEAEEKEEQELSSSESVNEEKEEAEFSSSESENEEKEEENEESSRFTM,not soluble
12,MKPTNKAQDDDAVFALSTEVNHKLDLHQSSAEALRLAGVYTRQSCVLDLYHGYRSDDEDTEPDEEDGRLQTVREYHENGMLKLMRTFVRRLRRDATDPTAESSYYDRVVEEKHYDPSGICRVDMHFALGQPYLYRKHYYPNNRLKSEKVFFVEDEETMRARKVGHWRTYYENGNIQSEIIYNKDGVRCGFCKRYAIDGAIEWVKDYTREQEERLQAFNAKRGNLDLTVTDAARVLGLEGDWCSHVVNRTFRSKCAPLHPDWRRTAGDKAGETWEEEQRTEAFIRLSRAREVLLKFLETHPRECSCERGGA,not soluble
13,MGSDKIHHHHHHMFKKLAADLTGFSDIGQVIHPDDFDKAAADDYVLHEDGEKIYFLIKSKTDEYCFTNLALVHLDGESAVSSKRVLYRYPYAHYPIRHVMFETAGTVDLDVEIKFEIGGKHYSIDVDKKQLEHVKDLYKALLAIAEKQYEGQKMLEFANSSLNHSVTILGGLRQGDMNVPQTFKDLSQESFDWLQGHYYKWNQKDFGSFYEKYINN,not soluble
14,MGSDKIHHHHHHMDAIVNTVNCVGVMGKGIALQFKNKWPANYSAYEAACKAKQVRPGTMFVFDSGGLVKPNYIINFPTKDHWRGKSRVEFIRDGLVDLVAQVKRLGIRSIAIPPLGCGNGGLEWDEVRPLIEQAFAVLPDVEVRLFAPAGAPDPKSMEVKTSRPKMTAGRAAILKVLDTYRSLEYGLSRIEVQKLAYFLQEAGESLSLSFVKNQYGPYSDQLRHALNRMEGHFIRGLGDGVVDAEIEPLEDALAEAEQYVSASGHAALARHVERVANLIEGFQTPYGMELLATVHWVATHEPTAHSFDQVVSAVHAWNERKARIMQPAHVRAAWSRLDAQGWL,not soluble
15,MAHHHHHHMKAASAAAPAAQTKAAAEAKAATATTAASSLSLSLLQYGASLYEAHTHLPEAAVARLPLNRYADYLRHFGFSMERESRGAAAPGTTLALDCTSPNHKTQAPLDGRWGKRVETDTSYDPVEVAGWGLPEALRCEADQQCNAVGSLSDATEWSAIAKQLVHPFMSVTWRQTATQCTMKKACCVYMWLCSHMTLQVSVPGAEEDAKEDSGGVSTVGLPSAAKAASLARKANRPARKVKEVPTTLEPAAPPDPLLVALQTRRAPAPVLADVYMHMLTSVGVLCEVVVGQLKGAAPEEAFEWSWNMVTVDGRQYLVDVSAALSNGVLRSAASYSDVPSSVAVPEAGKGQRAGNAAGRGKAATPSQSSPPAGSGAVPCSESVQLLPVTPERLRREFFFFAHPTYFLASHFPADPAKALVRTAMRAVQWGVRPRLTPAFYYYGLQLASHKTHSTFAASGSPSYVSFVNHHASTTELCCALYMGTLGTLPEDLSQTAPLGAEWVWHQREESTSTDTFTLTVPQAGYYVVVIGARPIRADPYSAVFTVAGETAFTPVVSYEMRVGFTPSSSPVLPRQYLSPSICRLITPLCSQILPGKHTFCVMPSCSNVLAVAVVKFVAAAATRTLLSLLPFQPRSAAFEGDVDVRSGECVEVWVLYGAPDRNGQELSQRAAAAAPPKAAATPCRSPTPAAKFKAADKKKREASAEHQQQLSALESQLAHLTQALHKGEVFQRCVGGIEVRHFVSPAVVGVIQPQPMVEQEQSITLRRLAGVTDALLREAEEVVRRQPAPVGSYFGAVEAAAAKS,not soluble
16,MAHHHHHHMMLHTRRTVYSCICVHTHTHTHTCGCPPPTLSQKKKRSRLFMSSSSGDEYDPAEVTVHTTVASPSLSDTVVPSAAPFLRSAAGNASAATVAAAPALASLPKTAASVLPSSSSPTPPNTGNDVDGGYRLHSNIKGRIRCLTLNTAGTTLCAGSEDGQLCMWDFTVPLKSYRVQPTRVLTPFVNRISGLQPIIALTCASDDSYFVACQDGDSPVLVRASGEQLGYCAIGERGLMDVIQCKGHRAPVTCVAAHTHDAAAFFTGSQDGTVRLWNTATFKQRSVYAVKHGSGQLTDTHAVESVASLDSFHNGLGRVFASGGQDGRVQIWDSRVKYRPGGAIATVDMYAAAAPAGPDKVTEDPFMEKHVGGMMELHQKDAGASNASGSYGLAVRLGSAVKIIDLRQLSHSDGTTAPKAVLQEAATGLPHVLDTSALSIGRGGGSSTMMTCTSRVGYRHTKGGHVVQYRYADGDRLVPTLVWRAGKQDEDVLCACADISRADGCVFAGLSSGDVVVHGAFSSGAAAPQPMEAWLQTRPQREGYERAVGVKAPRAVEDDADLLRDLF,not soluble
17,MGSDKIHHHHHHMKAMAMTPKPTAAIVGMGDAYASMQDRKDPIQLAVAATHKALADAGITKDQVDAVFTGRSPWADKRSQWSNIFCSHMHMPVTITSEITMHGAGLNATVAMAAQMIAAGRAQYVLCLQSDATELFVDAVAMGAEADADPQFEIPYGPTIPALYAQAACRYFHEFGITEEDLADVAIANQSWAMHHPHAAKARFGSIDRAKVLSSPYVATPLRRWMCSTWGGGTGGALVVTSVDNARTAQDPVYVMGYGSATTHEYLGDRMNMRRCRYPSLGAFPNLTHTATAEAARQAYESSGLTPADIDMAQISVNFAHMGPLIMEDLGFAAKGRGMDLYRAGRTGVDGDLPIDTNGGWLSFGQPGISCNMDSYAEAVRQLRGNALGRAPARRPRTVLVQGSGGMLAAGSVTILASEL,not soluble
18,MAFRKRRHDSEGDSDEERLPINKDEDEDLKAEPAKKSKNMWSDMLLEEQLLEKGQQINLDRTSRKQPNVSRGPESYLMPQDEFQRKQSRNANQKKKNEVFDKPVVLVTPASDDLFGDAPSALNEDFGVKKNDVKLPKDDEAGWWGKKGANKRYNDRMGYHSGGPRQPYPRKTTGQLMASEYSLESMVAAEFAPNLSTKELGTQMAAAMGEKDPDTVKKITNAIGSELSIKLFNETKEIEQNGGMKTADGSRRRTPGGVFITLFKMDSSVSREIKDGIFGDMRNAEKERTKKKKGEKQFTRQLEDMKKTMELAAQAETDLANEEQLATAVDAPFSDDAVDMV,not soluble

# Source: the DeepSol protein solubility set
